This experiment concerns the target GCN4pLI-HCN2(CNBD) tetramer (human). Kind of experiment: SEC; GCN4pLI-HCN2(CNBD) in solution; column and buffer not told for this run. For orientation: SEC sorts molecules by how far they enter the pores of the column.

The stoichiometry N is the number of molecules, sites or subunits per partner or assembly.

The substance GCN4pLI-HCN2(CNBD) tetramer came in with a stoichiometry N of 4.

The values above are taken from publication PMC5115869.
